Results as given in paper PMC4346919 (2015).

B1: biotin-labeled ALG-2 [modified: biotin-labeled; biotin-labeled] [human] / GST-SGG-linker-8xHis fused with the eight-residue Sec31A peptide (NPPPPGFI), wild type [human] (parent complex)
chain 1: MAAYSYRPGPGAGPGPAAGAALPDQSFLWNVFQRVDKDRSGVISDTELQQALSNGTWTPFNPVTVRSIISMFDRENKAGVNFSEFTGVWKYITDWQNVFRTYDRDNSGMIDKNELKQALSGFGYRLSDQFHDILIRKFDRQGRGQIAFDDFIQGCIVLQRLTDIFRRYDTDQDGWIQVSYEQYLSMVFSIV
chain 2: NPPPPGFI

Variants of: B1
Assay: far-Western blot (FW), signal intensity measured with ImageJ; n = 4; read off a plot

Variant | percent of parent
chain 2 I8G | ~9 % of WT
chain 2 N1P | ~100 % of WT
chain 2 P5L | ~55 % of WT
chain 2 P4A | ~42 % of WT
